Changes are numbered by the printed parent chain. Names and notes keep the numbering of the source. Where two headings read alike, the source gives them in different places.
B1: hu253C4-N31Q-1 (antibody, V domains shown)
VH: QVQLVQSGAEVKKPGASVKVSCKASGYIFTSYWIHWVRQAPGQGLEWMGRFYPGTGTAYYNENFEGRVTMTRDTSISTAYMELSRLRSDDTAVYYCAREGYGKGNSMDYWGQGTTVTVSS
VL: DIVMTQSPDSLAVSLGERATINCKSSQSLLQSGNQKNYLTWYQQKPGQPPKLLIYWASTRESGVPDRFSGSGSGTDFTLTISSLQAEDVAVYYCQNDYYFPFTFGGGTKLEIK
B2: hu253C4-N31Q-2 (antibody, V domains shown)
VH: B1 VH
VL: B1 VL with A19V, I21L, I81V, L84V
B3: hu253C4-N31Q-3 (antibody, V domains shown)
VH: B1 VH with A24T, M70L, R72A, A97T
VL: B1 VL
B4: hu299B2-S32A-2 (antibody, V domains shown)
VH: B1 VH with S31N, F51I, T57N, A58T, N63K, E65T, I76T, A79V, R85S, D89E
VL: B1 VL with I21M, Q31N, S32A, I54F, Y93H, D97A, F100Y, F102Y
notes: also called humanized antibody hu299B2-S32A
B5: hu299B2-S32A-3 (antibody, V domains shown)
VH: B1 VH with S31N, F51I, T57N, A58T, N63K, E65T, I76T, A79V, R85S, D89E
VL: B1 VL with A19V, I21M, Q31N, S32A, I54F, L84V, Y93H, D97A, F100Y, F102Y
notes: as for B4
B6: hu299B2-S32A-4 (antibody, V domains shown)
VH: QVQLVQSGAEVKKPGASVKVSCKTSGYIFTNYWIHWVRQAPGQGLEWMGRIYPGTGNTYYNEKFTGRVTLTADTSTSTVYMELSSLRSEDTAVYYCSREGYGKGNSMDYWGQGTTVTVSS
VL: B1 VL with Q31N, S32A, D97A, F100Y, F102Y
notes: as for B4

Assays:
[1] = molecular target: T1, human Claudin 18.2 (hCLDN18.2) (human, UniProt P56856-2 1-261); assay: FACS, HEK293-hCLDN18.2 cells
[2] = molecular target: T1, human Claudin 18.2 (hCLDN18.2); assay: FACS, PDX-hCLDN18.2 gastric cancer tumor tissue-derived cells
[3] = molecular target: murine CLDN18.2 (mCLDN18.2) (murine) (UniProt P56857); assay: FACS, HEK293-mCLDN18.2 cells
[4] = molecular target: T1, human Claudin 18.2 (hCLDN18.2); assay: FACS, HEK293-hCLDN18.2 cells; remark: listed apart in the source
[5] = molecular target: T1, human Claudin 18.2 (hCLDN18.2); assay: FACS, HEK293-hCLDN18.2 cells; remark: listed apart in the source
[6] = molecular target: murine CLDN18.2 (mCLDN18.2) (murine) (UniProt P56857); assay: FACS, HEK293-mCLDN18.2 cells; remark: listed apart in the source
[7] = molecular target: T1, human Claudin 18.2 (hCLDN18.2); assay: cell-based or functional assay
[8] = molecular target: T1, human Claudin 18.2 (hCLDN18.2); assay: cell-based or functional assay; remark: listed apart in the source
[9] = molecular target: T1, human Claudin 18.2 (hCLDN18.2); assay: FACS, PDX-hCLDN18.2 gastric cancer tumor tissue-derived cells; remark: listed apart in the source
[10] = molecular target: T1, human Claudin 18.2 (hCLDN18.2); assay: cell-based or functional assay; remark: listed apart in the source
[11] = molecular target: T1, human Claudin 18.2 (hCLDN18.2); assay: FACS, HEK293-hCLDN18.2 cells
Method: (§1) Using flow cytometry measurement, the mean fluorescence intensity (hereinafter referred to as MFI) for each concentration was calculated by the software, and then the half binding concentration (EC₅₀) and the mean maximum fluorescence intensity (Top MFI) were calculated by GraphPad software, and the results were shown in Table 11.

[12] = molecular target: T1, human Claudin 18.2 (hCLDN18.2); assay: FACS, PDX-hCLDN18.2 gastric cancer tumor tissue-derived cells
Method: as §1

[13] = molecular target: T1, human Claudin 18.2 (hCLDN18.2); assay: cell-based or functional assay; remark: listed apart in the source

Molecule	Mean maximum fluorescence intensity (Top MFI) [1]	EC50 [3]	Mean maximum fluorescence intensity (Top MFI) [3]	CDC EC50 [8]	CDC Maximum lysis (%) [8]	EC50 [9]	Mean maximum fluorescence intensity (Top MFI) [9]	EC50 [1]	ADCC EC50 [8]	ADCC Maximum lysis (%) [8]	ADCC EC50 [10]	ADCC Maximum lysis (%) [10]	EC50 [11]	Mean maximum fluorescence intensity (Top MFI) [11]	EC50 [12]	Mean maximum fluorescence intensity (Top MFI) [12]	CDC EC50 [13]	CDC Maximum lysis (%) [13]	also measured
chimeric antibody ch-175D10 from patent CN103509110B	26900 MFI	1.01 nM	4190 MFI	1.55 µg/mL	87.8%	24.9 nM	5700 MFI												EC50 [2]: 63.9 nM; Mean maximum fluorescence intensity (Top MFI) [2]: 7160 MFI; EC50 [4]: 0.881 nM; Mean maximum fluorescence intensity (Top MFI) [4]: 5450 MFI; EC50 [5]: 0.156 µg/mL; Mean maximum fluorescence intensity (Top MFI) [5]: 2840 MFI; EC50 [6]: 0.136 µg/mL; Mean maximum fluorescence intensity (Top MFI) [6]: 86400 MFI; ADCC EC50 [7]: 0.021 µg/mL; ADCC Maximum lysis (%) [7]: 31.8%; CDC EC50 [7]: 1.19 µg/mL; CDC Maximum lysis (%) [7]: 87.4%
B1	23000 MFI	0.19 µg/mL	65000 MFI	0.175 µg/mL	96.3%	12 nM	16300 MFI	0.216 nM	0.024 µg/mL	54.9%									
B2	29000 MFI	0.026 µg/mL	36800 MFI	0.149 µg/mL	97.5%	11.4 nM	15600 MFI	0.361 nM	0.037 µg/mL	58.8%									
B3	18800 MFI	0.03 µg/mL	42100 MFI	0.128 µg/mL	96.1%	25.6 nM	21600 MFI	0.145 nM	0.038 µg/mL	70.3%									
B4		0.111 µg/mL	90400 MFI								0.028 µg/mL	68.1%	0.463 nM	36700 MFI	24.6 nM	22900 MFI	0.129 µg/mL	99.7%	
B5		0.342 µg/mL	103000 MFI								0.022 µg/mL	69.1%	0.399 nM	40000 MFI	26.1 nM	24300 MFI	0.092 µg/mL	99.8%	
B6		0.281 µg/mL	84900 MFI								0.024 µg/mL	63.2%	0.318 nM	31200 MFI	29.3 nM	23000 MFI	0.123 µg/mL	99.9%	
